Square brackets hold non-standard residues; d marks the D form. Ends that are not written are not given here. pT = C[C@@H](OP(=O)(O)O)[C@H](N)C(=O)O
Tests used:
[1] = test system: CD8+ T cells of healthy HLA-A*02 donors; experiment: In vitro T-cell priming (aAPC with pMHC and anti-CD28), pMHC multimer readout; assay type: cell-based, human; details: for Wells positive [%]: HLA-A*02 restricted peptides, positive wells and donors among evaluable, Table 10B
Source text: In order to obtain information regarding the immunogenicity of the TUMAPs of the present invention, the inventors performed investigations using an in vitro T-cell priming assay based on repeated stimulations of CD8+ T cells with artificial antigen presenting cells (aAPCs) loaded with peptide/MHC complexes and anti-CD28 antibody.
In order to perform in vitro stimulations by artificial antigen presenting cells loaded with peptide-MHC complex (pMHC) and anti-CD28 antibody, the inventors first isolated CD8+ T cells from fresh HLA-A*02 leukapheresis products via positive selection using CD8 microbeads (Miltenyi Biotec, Bergisch-Gladbach, Germany) of healthy donors obtained from the University clinics Mannheim, Germany, after informed consent.
PBMCs and isolated CD8+ lymphocytes were incubated in T-cell medium (TCM) until use consisting of RPMI-Glutamax (Invitrogen, Karlsruhe, Germany) supplemented with 10% heat inactivated human AB serum (PAN-Biotech, Aidenbach, Germany), 100 U/ml Penicillin/100 μg/ml Streptomycin (Cambrex, Cologne, Germany), 1 mM sodium pyruvate (CC Pro, Oberdorla, Germany), 20 μg/ml Gentamycin (Cambrex). 2.5 ng/ml IL-7 (PromoCell, Heidelberg, Germany) and 10 U/ml IL-2 (Novartis Pharma, Nümberg, Germany) were also added to the TCM at this step.
Generation of pMHC/anti-CD28 coated beads, T-cell stimulations and readout was performed in a highly defined in vitro system using four different pMHC molecules per stimulation condition and 8 different pMHC molecules per readout condition.
The purified co-stimulatory mouse IgG2a anti human CD28 Ab 9.3 (Jung et al., 1987) was chemically biotinylated using Sulfo-N-hydroxysuccinimidobiotin as recommended by the manufacturer (Perbio, Bonn, Germany). Beads used were 5.6 μm diameter streptavidin coated polystyrene particles (Bangs Laboratories, Illinois, USA).
800.000 beads/200 μl were coated in 96-well plates in the presence of 4×12.5 ng different biotin-pMHC, washed and 600 ng biotin anti-CD28 were added subsequently in a volume of 200 μl. Stimulations were initiated in 96-well plates by co-incubating 1×10^6 CD8+ T cells with 2×10^5 washed coated beads in 200 μl TCM supplemented with 5 ng/ml IL-12 (PromoCell) for 3 days at 37° C. Half of the medium was then exchanged by fresh TCM supplemented with 80 U/ml IL-2 and incubating was continued for 4 days at 37° C. This stimulation cycle was performed for a total of three times. For the pMHC multimer readout using 8 different pMHC molecules per condition, a two-dimensional combinatorial coding approach was used as previously described (Andersen et al., 2012) with minor modifications encompassing coupling to 5 different fluorochromes. Finally, multimeric analyses were performed by staining the cells with Live/dead near IR dye (Invitrogen, Karlsruhe, Germany), CD8-FITC antibody clone SK1 (BD, Heidelberg, Germany) and fluorescent pMHC multimers. For analysis, a BD LSRII SORP cytometer equipped with appropriate lasers and filters was used. Peptide specific cells were calculated as percentage of total CD8+ cells. Evaluation of multimeric analysis was done using the FlowJo software (Tree Star, Oregon, USA). In vitro priming of specific multimer+CD8+ lymphocytes was detected by comparing to negative control stimulations.

HLA-A*02:01 = HLA-A*02:01 (Homo sapiens, UniProt P04439, D140Y/D185E/D98H/E176V/E277Q/G131W/G231S/I119V/I121R/I166T/I218V/L300P/L318F/N151K/N90K/P208A/P217A/Q86G/Q94H/R138H/R169H/T345S); experiment: MHC binding assay: UV-ligand exchange with β2m ELISA; details: binding to HLA-A*02:01, UV-ligand exchange
Source text: Candidate peptides for T cell based therapies according to the present invention were further tested for their MHC binding capacity (affinity). The individual peptide-MHC complexes were produced by UV-ligand exchange, where a UV-sensitive peptide is cleaved upon UV-irradiation, and exchanged with the peptide of interest as analyzed. Only peptide candidates that can effectively bind and stabilize the peptide-receptive MHC molecules prevent dissociation of the MHC complexes. To determine the yield of the exchange reaction, an ELISA was performed based on the detection of the light chain (β2m) of stabilized MHC complexes. The assay was performed as generally described in Rodenko et al. (Rodenko et al., 2006).
96 well MAXISorp plates (NUNC) were coated over night with 2 ug/ml streptavidin in PBS at room temperature, washed 4× and blocked for 1 h at 37° C. in 2% BSA containing blocking buffer. Refolded HLA-A*02:01/MLA-001 monomers served as standards, covering the range of 15-500 ng/ml. Peptide-MHC monomers of the UV-exchange reaction were diluted 100-fold in blocking buffer. Samples were incubated for 1 h at 37° C., washed four times, incubated with 2 ug/ml HRP conjugated anti-β2m for 1 h at 37° C., washed again and detected with TMB solution that is stopped with […]. Absorption was measured at 450 nm. Candidate peptides that show a high exchange yield (preferably higher than 50%, most preferred higher than 75%) are generally preferred for a generation and production of antibodies or fragments thereof, and/or T cell receptors or fragments thereof, as they show sufficient avidity to the MHC molecules and prevent dissociation of the MHC complexes.

Sequence: SLADAVEKV (listed as Homo sapiens) [SEQ ID NO: 23, HLA-A*02 peptide, source gene CCDC122]
- Wells positive [%] [1]: “+++” (50%-69% = +++)
- Peptide Exchange (peptide exchange yield) (HLA-A*02:01): “+++” (≥50 = +++)

Sequence: KMPEHISTV (listed as Homo sapiens) [SEQ ID NO: 1, HLA-A*02 peptide, source gene CILP]
- Wells positive [%] [1]: “+” (<20% = +)
- Peptide Exchange (peptide exchange yield) (HLA-A*02:01): “+++” (≥50 = +++)

Sequence: TLSSIKVEV (listed as Homo sapiens) [SEQ ID NO: 50, peptide useful for personalized cancer therapies, source gene MXRA5]
- wells (in vitro immunogenicity, positive wells) ([1]; HLA class I peptides, Table 10A): + (<20% = +)

Sequence: SLLTEPALV (listed as Homo sapiens) [SEQ ID NO: 21, HLA-A*02 peptide, source gene TBC1D9]
- Wells positive [%] [1]: “++” (20%-49% = ++)
- Peptide Exchange (peptide exchange yield) (HLA-A*02:01): “+++” (≥50 = +++)

Sequence: GLVATLQSL (listed as Homo sapiens) [SEQ ID NO: 32, HLA-A*02 peptide, source gene IFI6]
- Peptide Exchange (peptide exchange yield) (HLA-A*02:01): “+++” (≥50 = +++)

Sequence: KAFPFYNTV (listed as Homo sapiens) [SEQ ID NO: 12, HLA-A*02 peptide, source gene NAIP]
- Peptide Exchange (peptide exchange yield) (HLA-A*02:01): “++” (≥20% = ++)

Sequence: YIDGLESRV (listed as Homo sapiens) [SEQ ID NO: 22, HLA-A*02 peptide, source gene CREB3L4]
- Wells positive [%] [1]: “+” (<20% = +)
- Peptide Exchange (peptide exchange yield) (HLA-A*02:01): “+++” (≥50 = +++)

Sequence: GLLGFQAEA (listed as Homo sapiens) [SEQ ID NO: 24, HLA-A*02 peptide, source gene MAGED1]
- Wells positive [%] [1]: “++” (20%-49% = ++)
- Peptide Exchange (peptide exchange yield) (HLA-A*02:01): “++++” (≥75% = ++++)

Sequence: YILLQSPQL (listed as Homo sapiens) [SEQ ID NO: 18, HLA-A*02 peptide, source gene MUC6]
- Peptide Exchange (peptide exchange yield) (HLA-A*02:01): “++++” (≥75% = ++++)

Sequence: KLYEGIPVL (listed as Homo sapiens) [SEQ ID NO: 13, HLA-A*02 peptide, source gene NEK10]
- Peptide Exchange (peptide exchange yield) (HLA-A*02:01): “++” (≥20% = ++)

Sequence: SLFSVPFFL (listed as Homo sapiens) [SEQ ID NO: 28, HLA-A*02 peptide, source gene TM9SF1]
- Peptide Exchange (peptide exchange yield) (HLA-A*02:01): “++++” (≥75% = ++++)

Sequence: SLAWDVPAA (listed as Homo sapiens) [SEQ ID NO: 26, HLA-A*02 peptide, source gene FASN]
- Peptide Exchange (peptide exchange yield) (HLA-A*02:01): “+++” (≥50 = +++)

Sequence: ALTALQNYL (listed as Homo sapiens) [SEQ ID NO: 6, HLA-A*02 peptide, source gene TFAP2B]
- Peptide Exchange (peptide exchange yield) (HLA-A*02:01): “+++” (≥50 = +++)

Sequence: ALAGSSPQV (listed as Homo sapiens) [SEQ ID NO: 2, HLA-A*02 peptide, source gene CNTD2]
- Wells positive [%] [1]: “++” (20%-49% = ++)
- Peptide Exchange (peptide exchange yield) (HLA-A*02:01): “+++” (≥50 = +++)

Sequence: GLSYIYNTV (listed as Homo sapiens) [SEQ ID NO: 31, HLA-A*02 peptide, source gene COG6]
- Peptide Exchange (peptide exchange yield) (HLA-A*02:01): “++” (≥20% = ++)

Sequence: ALEAUQLYL (ALEA[pT]QLYL; listed as Homo sapiens) [SEQ ID NO: 29, HLA-A*02 peptide, source gene DEPDC4; U = phospho-threonine]
- Peptide Exchange (peptide exchange yield) (HLA-A*02:01): “+++” (≥50 = +++)

Sequence: FLSSEAANV (listed as Homo sapiens) [SEQ ID NO: 30, HLA-A*02 peptide, source gene TNFAIP2]
- Peptide Exchange (peptide exchange yield) (HLA-A*02:01): “++” (≥20% = ++)

Sequence: FLVEHVLTL (listed as Homo sapiens) [SEQ ID NO: 42, HLA-A*02 peptide, source gene printed 5LC39A6]
- Peptide Exchange (peptide exchange yield) (HLA-A*02:01): “++++” (≥75% = ++++)

Sequence: ILFDVVVFL (listed as Homo sapiens) [SEQ ID NO: 25, HLA-A*02 peptide, source gene C4orf3]
- Peptide Exchange (peptide exchange yield) (HLA-A*02:01): “++” (≥20% = ++)

— patent US11065314B2, “Peptides and combination of peptides for use in immunotherapy against breast cancer and other cancers” (Immatics Biotechnologies GmbH, priority 2015, dated 2021)
